What was measured:
[1] = molecular target: T1, His6-Vps4 (S. cerevisiae, UniProt P52917 1-437); experiment: cell-based or functional assay
T1 sequence (looked up): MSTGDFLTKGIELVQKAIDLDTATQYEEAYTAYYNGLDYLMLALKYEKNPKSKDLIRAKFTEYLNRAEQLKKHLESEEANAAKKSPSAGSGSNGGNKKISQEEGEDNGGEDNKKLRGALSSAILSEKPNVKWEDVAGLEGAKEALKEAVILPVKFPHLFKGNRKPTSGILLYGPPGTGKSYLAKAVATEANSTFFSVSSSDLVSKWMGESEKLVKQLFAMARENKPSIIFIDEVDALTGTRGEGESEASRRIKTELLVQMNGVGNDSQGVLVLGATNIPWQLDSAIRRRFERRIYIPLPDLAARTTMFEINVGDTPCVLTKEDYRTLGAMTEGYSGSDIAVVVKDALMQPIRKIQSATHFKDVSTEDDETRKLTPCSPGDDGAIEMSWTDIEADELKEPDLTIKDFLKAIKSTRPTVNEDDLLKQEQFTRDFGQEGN

[2] = molecular target: T1, His6-Vps4; experiment: pull-down; His6-Vps4 (10 μg) or His6-MIT on Ni-NTA agarose; 6 μg Bro1V or mutants in ATPase buffer + 0.02% Tween20, 1 hour at 30°C; four washes NiA buffer with 10 mM imidazole; eluted with 200 mM imidazole; protein stain and anti-Bro1 immunoblot; conditions: both partners purified

B1: Bro1 V domain (Bro1V, aa 370-709), GST tag removed (domain or fragment, S. cerevisiae, UniProt P48582 370-709, looked up)
chain: DVYEKESIYSEEKATLLRKQVEETETANLEYSSFIEFTNLPRLLSDLEKQFSDGNIFSNTDTQGQLMRDQIQTWCKFIQTNEFRDIEEQMNKIVFKRKQILEILSALPNDQKENVTKLKSSLVAASNSDEKLFACVKPHIVEINLLNDNGKIWKKFDEFNRNTPPQPSLLDIDDTKNDKILELLKQVKGHAEDLRTLKEERSRNLSELRDEINNDDITKLLIINKGKSDVELKDLFEVELEKFEPLSTRIEATIYKQSSMIDDIKAKLDEIFHLSNFKDKSSGEEKFLEDRKNFFDKLQEAVKSFSIFASDLPKGIEFYDSLFNMSRDLAERVRVAKQTE
Vps4 (0.5μM) ATPase activity with titration of Bro1V (10nM-8μM): maximal stimulation over basal activity (Vps4 of the ATPase assay came from GST-Vps4) [1]: 2.6 fold

B2: Bro1V^M4 (V505A, H508A, I512A), GST tag removed (domain or fragment, S. cerevisiae, UniProt P48582 370-709, looked up)
chain: DVYEKESIYSEEKATLLRKQVEETETANLEYSSFIEFTNLPRLLSDLEKQFSDGNIFSNTDTQGQLMRDQIQTWCKFIQTNEFRDIEEQMNKIVFKRKQILEILSALPNDQKENVTKLKSSLVAASNSDEKLFACAKPAIVEANLLNDNGKIWKKFDEFNRNTPPQPSLLDIDDTKNDKILELLKQVKGHAEDLRTLKEERSRNLSELRDEINNDDITKLLIINKGKSDVELKDLFEVELEKFEPLSTRIEATIYKQSSMIDDIKAKLDEIFHLSNFKDKSSGEEKFLEDRKNFFDKLQEAVKSFSIFASDLPKGIEFYDSLFNMSRDLAERVRVAKQTE
notes: Bro1 V domain, S. cerevisiae, aa 370-709, mutant M4; source: E. coli BL21-DE3, purified (Glutathione Sepharose 4B, AcTEV protease to remove GST, Superdex200 size exclusion)
binding result [2]: binds

B3: Bro1V^M10 (K481D), GST tag removed (domain or fragment, S. cerevisiae, UniProt P48582 370-709, looked up)
chain: DVYEKESIYSEEKATLLRKQVEETETANLEYSSFIEFTNLPRLLSDLEKQFSDGNIFSNTDTQGQLMRDQIQTWCKFIQTNEFRDIEEQMNKIVFKRKQILEILSALPNDQDENVTKLKSSLVAASNSDEKLFACVKPHIVEINLLNDNGKIWKKFDEFNRNTPPQPSLLDIDDTKNDKILELLKQVKGHAEDLRTLKEERSRNLSELRDEINNDDITKLLIINKGKSDVELKDLFEVELEKFEPLSTRIEATIYKQSSMIDDIKAKLDEIFHLSNFKDKSSGEEKFLEDRKNFFDKLQEAVKSFSIFASDLPKGIEFYDSLFNMSRDLAERVRVAKQTE
notes: Bro1 V domain, S. cerevisiae, aa 370-709, mutant M10; source: E. coli BL21-DE3, purified (Glutathione Sepharose 4B, AcTEV protease to remove GST, Superdex200 size exclusion)
binding result [2]: binds

B4: Bro1V^M9 (T587D), GST tag removed (domain or fragment, S. cerevisiae, UniProt P48582 370-709, looked up)
chain: DVYEKESIYSEEKATLLRKQVEETETANLEYSSFIEFTNLPRLLSDLEKQFSDGNIFSNTDTQGQLMRDQIQTWCKFIQTNEFRDIEEQMNKIVFKRKQILEILSALPNDQKENVTKLKSSLVAASNSDEKLFACVKPHIVEINLLNDNGKIWKKFDEFNRNTPPQPSLLDIDDTKNDKILELLKQVKGHAEDLRTLKEERSRNLSELRDEINNDDIDKLLIINKGKSDVELKDLFEVELEKFEPLSTRIEATIYKQSSMIDDIKAKLDEIFHLSNFKDKSSGEEKFLEDRKNFFDKLQEAVKSFSIFASDLPKGIEFYDSLFNMSRDLAERVRVAKQTE
notes: Bro1 V domain, S. cerevisiae, aa 370-709, mutant M9; source: E. coli BL21-DE3, purified (Glutathione Sepharose 4B, AcTEV protease to remove GST, Superdex200 size exclusion)
binding result [2]: binds

B5: Bro1V^M8 (E686A, L691D), GST tag removed (domain or fragment, S. cerevisiae, UniProt P48582 370-709, looked up)
chain: DVYEKESIYSEEKATLLRKQVEETETANLEYSSFIEFTNLPRLLSDLEKQFSDGNIFSNTDTQGQLMRDQIQTWCKFIQTNEFRDIEEQMNKIVFKRKQILEILSALPNDQKENVTKLKSSLVAASNSDEKLFACVKPHIVEINLLNDNGKIWKKFDEFNRNTPPQPSLLDIDDTKNDKILELLKQVKGHAEDLRTLKEERSRNLSELRDEINNDDITKLLIINKGKSDVELKDLFEVELEKFEPLSTRIEATIYKQSSMIDDIKAKLDEIFHLSNFKDKSSGEEKFLEDRKNFFDKLQEAVKSFSIFASDLPKGIAFYDSDFNMSRDLAERVRVAKQTE
notes: Bro1 V domain, S. cerevisiae, aa 370-709, mutant M8; source: E. coli BL21-DE3, purified (Glutathione Sepharose 4B, AcTEV protease to remove GST, Superdex200 size exclusion)
binding result [2]: binds

Source: article doi:10.1101/2020.07.27.223255, “Bro1 stimulates Vps4 activity to promote Intralumenal Vesicle Formation during Multivesicular Body biogenesis” (bioRxiv, 2020)
